Experimental data: patent US20180230225A1 (LEGEND BIOTECH USA, published 2018)

Legend:
[1] = target: T1, recombinant human CD38 protein having a C-terminal His tag (ACRO Biosystems, Cat No.: CD8-H5224) (human, UniProt P28907 43-300); test: phage ELISA on the recombinant antigen, by a process similar to the one described for BCMA
T1 construct: Bought protein; not shown: C-terminal His tag
T1 sequence (looked up): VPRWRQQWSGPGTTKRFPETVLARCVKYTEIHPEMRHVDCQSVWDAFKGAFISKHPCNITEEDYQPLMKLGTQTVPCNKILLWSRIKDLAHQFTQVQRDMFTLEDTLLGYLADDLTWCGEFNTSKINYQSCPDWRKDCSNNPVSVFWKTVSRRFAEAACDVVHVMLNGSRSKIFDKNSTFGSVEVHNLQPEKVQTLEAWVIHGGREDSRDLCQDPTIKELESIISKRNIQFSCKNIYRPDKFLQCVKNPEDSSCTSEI

[2] = target: T2, recombinant human BCMA protein having a C-terminal Fc tag (ACRO Biosystems, Cat No.: BC7-H5254) (human, UniProt Q02223 1-54); test: phage ELISA: plate coated with recombinant human BCMA protein (Fc control protein in parallel) or CHO-BCMA cells; phage supernatant, HRP anti-M13, A450
T2 construct: Bought protein; Clones were also screened on CHO cells expressing human BCMA (CHO-BCMA); also called CD269; not shown: C-terminal Fc tag
T2 sequence (looked up): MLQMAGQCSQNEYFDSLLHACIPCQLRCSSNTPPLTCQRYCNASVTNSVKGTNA
Protocol: Phage ELISA was performed to identify clones specific to the target antigens. Individual output phage clones were grown in 96-deep-well plate and rescued by M13KO7 helper phage overnight. To identify clones that bind to antigen proteins, 96-well ELISA microtiter plates were coated with recombinant human BCMA protein and Fc control protein respectively in coating buffer overnight at 4° C., and the plates were then blocked with blocking buffer. After blocking, approximately 50 μl per well of phage supernatant from the overnight cell culture was added to the plates for 1.5-hour incubation at 4° C. The plates were washed four times, and the HRP-conjugated anti-M13 monoclonal antibody was added to the plates for 45-minute incubation at 4° C. The plates were again washed five times and substrate solution was added to the wells for developing. Absorption at 450 nm was measured for each well.
To identify clones that bind CHO-BCMA cells, the CHO-BCMA cells were blocked with blocking buffer at room temperature for 1 hour. After blocking, approximately 20 μl per well of phage supernatant from the overnight cell culture was added to the cell solutions for 1-hour incubation at room temperature. After the cells were washed 4 times, the HRP-conjugated anti-M13 monoclonal antibody was added for 30-minute incubation at room temperature. The cells were washed five times and substrate solution was then added for developing. The absorption was measured at 450 nm.

Binder	binding result [1]	binding result [2]
38A37336 (VHH, Llama VHH from an immune phage library; also called anti-CD38 sdAb) VHH: EVQLVESGGGLVQPGGSLRLSCAASGFTFSSNWMYWVRQAPGKGLEWVATISTDGRGTYYKDSVKGRFTVSRDNAMSTLLLQMNNLKSEDTAVYYCAKEPRVLMAYLRNLGDFGSWGQGTQVTVSS	binds	
269A37972 (VHH, Llama VHH from an immune phage library; also called anti-BCMA sdAb) VHH: QVQLVESGGGLVQAGGSLRLSCAASGGTLSKNTVAWFRQAPGKERGFVASITWDGRTTYYADSVKGRFTISRDNAKNTVYLQMNSLKPEDTAVYVCADLGKWPAGPADYWGQGTQVTVSS		binds
269A37965 (VHH, Llama VHH from an immune phage library; also called anti-BCMA sdAb) VHH: AVQLVESGGGLVQAGDSLRLSCTASGATLTNDHMAWFRQAPGKGREFVAAIDWSGRTTNYADPVEGRFTISRNNAKNTVYLEMNSLKLEDTAVYYCAVLRAWISYDNDYWGQGTQVTVSS		binds
38A37333 (VHH, Llama VHH from an immune phage library; also called anti-CD38 sdAb) VHH: DVQLVESGGGLVQPGGSLRLSCVASGLTFSSYPMMWVRQAPGKGLEWVSRISDSGGYTNYDDSVKGRFTISRDNAKNTLYLQMNSLTPEDTAVYYCRILGLPTTGQGTQVTVSS	binds	
269A37936 (VHH, Llama VHH from an immune phage library; also called anti-BCMA sdAb) VHH: EVQLVESGGGVVQAGGSLTVSCTASGFTFDRAVIVWFRQAPGKGREGVSFIKPSDGTIYYIDSLKGRFTISSDIAKNTVYLQMKSLESEDSAVYYCAASPEDWYTDWIDWSIYRWQHWGQGTQVTVSS		binds
38A37326 (VHH, Llama VHH from an immune phage library; also called anti-CD38 sdAb) VHH: EVQLVESGGGLVQAGGSLRLSCAASGRTYAMGWYRQAPGKQRDLVATISGAGNTKYADSVKGRFTISRDNAKNTMYLQMNSLKPEDTAVYYCAAGKWFPAANEYWGQGTQVTVSS	binds	
38A37719 (VHH, Llama VHH from an immune phage library; also called anti-CD38 sdAb) VHH: QVKLEESGGGSVQTGGSLRLSCAASASIFTRLPMGWYRQAPGKQRELVVGIVPSGRINYADSVKGRFTISRDNAKNTVYLQMNSLRPEDTAVYYCRADTFPLPTWGQGTQVTVSS	binds	
38A37334 (VHH, Llama VHH from an immune phage library; also called anti-CD38 sdAb) VHH: EVQLVESGGGLVQAGGSLRLSCAASGLTFSSYIMGWFRQAPGEERELVAEISSGGMTSYADSVKGRFTISRDNAKKTGYLQMNSLKPEDTAVYYCAAPERGSIWYSRYEYKYWGQGTQVTVSS	binds	
38A37699 (VHH, Llama VHH from an immune phage library; also called anti-CD38 sdAb) VHH: QVQLVESGGGLVQAGGSLRLSCAASGRIFSINAMGWYRQAPGKQRELVAAISTAGSTNYGDSVKGRFTISRDNAKNTVYLQMNSLKPEDTAVYYCNLNFPPYVYWGQGTQVTVSS	binds	
38A37331 (VHH, Llama VHH from an immune phage library; also called anti-CD38 sdAb) VHH: QVKLEESGGGLVQPGESLRLSCSASGSIFKVFRVFAMSWYRQGPGKQRELVASISSGETTTYADSVKGRFTISRDNAKNTAYLQMDSLKPEDTAVYYCNADHTFTGDFWGQGTQVTVSS	binds	
38A37330 (VHH, Llama VHH from an immune phage library; also called anti-CD38 sdAb) VHH: QVQLVESGGGLVQAGDSLRLSCAASGRAYATMAWFRQAPGKEREFVAHLRVSGDTTYYTDSVKGRFTISRDNAKNTAYLQMNMLKPEDTAVYYCAAGPYGILAAARVSNPGNYDYWGQGTQVTVSS	binds	
38A37340 (VHH, Llama VHH from an immune phage library; also called anti-CD38 sdAb) VHH: DVQLVESGGGLVQAGDSLRLSCAASGRTFSSYAMAWFRQAPGKEREIVSSISTSGGITDYADSVKGRFTISKDSAKMNTVYLQMNSLEPEDTAVYYCAARTWYLRTSLQYDYWGQGTQVTVSS	binds	
269A37915 (VHH, Llama VHH from an immune phage library; also called anti-BCMA sdAb) VHH: EVQLVESGGGLVQAGGSLRLSCAASGRTFSSIVMGWFRQAPGKEREFVGAIMWNDGITYLQDSVKGRFTIFRDNAKNTVYLQMNSLKLEDTAVYYCAASKGRYSEYEYWGQGTQVTVSS		binds
269A37953 (VHH, Llama VHH from an immune phage library; also called anti-BCMA sdAb) VHH: EVQLVESGGGMVQAGDSLRLSCVQSTYTVNSDVMGWFRQAPGKEREFVGAIMWNDGITYLQDSVKGRFTIFRDNAKNTVYLQMNSLKLEDTAVYYCAASKGRYSEYEYWGQGTQVTVSS		binds
269A37948 (VHH, Llama VHH from an immune phage library; also called anti-BCMA sdAb) VHH: AVQLVESGGGLVQAGDSLRLTCTASGRAFSTYFMAWFRQAPGKEREFVAGIAWSGGSTAYADSVKGRFTISRDNAKNTVYLQMNSLKSEDTAVYYCASRGIEVEEFGAWGQGTQVTVSS		binds
38A37731 (VHH, Llama VHH from an immune phage library; also called anti-CD38 sdAb) VHH: QVKLEESGGGLVQAGGSLRLSCVASGTIVSISTMGWYRQAPGKQRELVATITRRGRTNYTDSVKGRFTISRDNAKNTVYLQMNSLKPEDTAVYYCNAEVQLDIWASAYDYWGQGTQVTVAS	binds	
269A37355 (VHH, Llama VHH from an immune phage library; also called anti-BCMA sdAb) VHH: AVQLVDSGGGLVQPGGSLRLSCVASGGIFVINAMGWYRQAPGKQRELVASIRGLGRTNYDDSVKGRFTISRDNANNTVYLQMNSLEPEDTAVYYCTVYVTLLGGVNRDYWGQGTQVTVSS		binds
